Laboratory results reported in US20190375786A1, “STABLE PEPTIDES AND METHODS OF USE THEREOF” (Fred Hutchinson Cancer Research Center, priority 2016, published 2019).

Key:
[1] = Resistance to elevated temperature, HPLC; assay type: physicochemical; settings: HPLC peak vs untreated peptide; for Resistance to Temperature (75° C.): 75° C. for one hour; for Resistance to Temperature (100° C.): 100° C. for one hour
Method in brief: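 Peptides were incubated at room temperature, 70° C or 100° C for one hour in ddH2O; another protocol used 70° C, 75° C or 100° C for one hour in 0.5 mM PBS, then pelleting and analysis of the supernatant. Remaining peptide was measured by C-18 RP-HPLC, 5–45% acetonitrile/0.1% TFA over 10 min.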

[2] = Resistance to reduction by DTT, RP-HPLC; assay type: physicochemical; settings: 10 mM DTT in PBS, room temperature, 30 minutes; HPLC peak vs untreated peptide
Procedure: Peptides were first suspended in 500 ul of ddH2O to a stock concentration of 2 mg/ml. Reactions were prepared by adding 12.5 ug of peptide from the stock solution to a 10 mM solution of DTT in PBS and allowed to incubate at room temperature for 30 minutes. Other reactions were prepared with 12.5 μg peptide with or without 500 U/ml pepsin in simulated gastric fluid (SGF; pH 1.05; […] sodium chloride in 0.7% (v/v) hydrochloric acid) and were incubated for 30 minutes at 37.5° C. Some reactions were quenched with a final concentration of 100 mM Tris base and 10 mM dithiothreitol (DTT). Some reactions were performed in all of the above components, including simulated gastric fluid, pepsin, Tris, and DTT (referred to as SPTD). Reversed phase HPLC (RP-HPLC) was run on samples using an Agilent 1260 HPLC equipped with a C-18 Poroshell 120B column. Sample were analyzed by a gradient method with a mobile phase of Solvent A (water with 0.1% TFA) and Solvent B (acetonitrile with 0.1% TFA). Solvent B was ramped up from 5%-45% of the mobile phase over a period of 10 minutes. Peptides were detected at an absorbance of 214 nm and 280 nm.
Peptides were first suspended in 500 μl of ddH2O to a stock concentration of 2 mg/ml. Reactions were prepared by adding 12.5 μg of peptide from the stock solution to a 10 mM solution of DTT in PBS and allowed to incubate at room temperature for 30 minutes. Other reactions were prepared with 12.5 μg peptide and 500 U/ml trypsin in 25 mM Tris/75 mM NaCl buffer (pH 7.0) and incubated for 30 minutes at 37.5° C. These reactions were then quenched with 5 μg of soybean trypsin inhibitor (I) and, in some cases, 10 mM dithiothreitol (DTT). Reversed phase HPLC (RP-HPLC) was run on samples using an Agilent 1260 HPLC equipped with a C-18 Poroshell 120B column. Sample were analyzed by a gradient method with a mobile phase of Solvent A (water with 0.1% TFA) and Solvent B (acetonitrile with 0.1% TFA). Solvent B was ramped up from 5%-45% of the mobile phase over a period of 10 minutes. For testing pepsin digestion resistance, reactions were prepared with 12.5 μg peptide with or without 500 U/ml pepsin in simulated gastric fluid (SGF; pH 1.05; […] sodium chloride in 0.7% (v/v) hydrochloric acid) and were incubated for 30 minutes at 37.5° C. For testing temperature resistance, peptides were incubated at 70° C., 75° C., or 100° C. for one hour in 0.5 mM PBS, pelleted, and then the supernatant was analyzed by HPLC.
This example illustrates peptide stability in biological conditions including in the presence of reducing agents, proteases, oxidative conditions, acidic conditions, and simulated gastric fluids. […] Various peptides were suspended in 500 μl of ddH2O at a stock concentration of 2 mg/ml. This was then diluted in accord with the reaction conditions to prevent adverse buffering effects. Reactions were prepared with 12.5 μg peptide dissolved in solution and, in some samples, additionally suspended in a 10 mM solution of DTT, simulated gastric fluid (pH 1.05; […] sodium chloride in 0.7% (v/v) hydrochloric acid), 500 U pepsin (5000 U/ml pepsin), 50 U trypsin (500 U/ml trypsin) with 1 mg/ml inhibitor in PBS, or a combination of any of these conditions. All protease reactions were incubated for 30 min at room temperature and then quenched. Pepsin reactions were quenched by adding Tris base to a final concentration of 0.075 M. Trypsin reactions were quenched by adding excess soybean trypsin inhibitor. RP-HPLC was then run on samples using an Agilent 1260 HPLC equipped with a C-18 Poroshell 120B column. Sample were analyzed by a gradient method with a mobile phase of Solvent A (water with 0.1% TFA) and Solvent B (acetonitrile with 0.1% TFA). Solvent B was ramped up from 5%-45% of the mobile phase over a period of 10 minutes.
FIG. 18 illustrates high performance liquid chromatograph (HPLC) traces of peptides in non-reducing (NR) conditions (solid trace) or in 10 mM DTT reducing (R) conditions (dashed trace). […]

[3] = molecular target: pepsin (Sus scrofa, UniProt P00791); experiment: Pepsin digestion resistance in simulated gastric fluid, RP-HPLC; assay type: in vitro ADME, porcine; set-up: purchased Sigma Aldrich P7012; settings: 500 U/ml pepsin in SGF pH 1.05, 30 minutes at 37.5° C.; HPLC peak vs untreated peptide
Sequence of pepsin (P00791 60-385): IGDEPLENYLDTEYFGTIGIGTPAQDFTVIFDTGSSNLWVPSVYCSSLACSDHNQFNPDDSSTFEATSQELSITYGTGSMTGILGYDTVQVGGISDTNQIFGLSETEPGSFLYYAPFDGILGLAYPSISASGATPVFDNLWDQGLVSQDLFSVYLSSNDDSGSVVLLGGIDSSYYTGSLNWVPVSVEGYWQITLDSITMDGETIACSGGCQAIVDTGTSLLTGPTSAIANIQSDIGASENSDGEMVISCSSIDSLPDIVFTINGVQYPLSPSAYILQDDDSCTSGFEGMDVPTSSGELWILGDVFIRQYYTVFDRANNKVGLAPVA
Method in brief: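 Digestion resistance read by reversed-phase HPLC (C-18, 0.1% TFA, 5–45% acetonitrile over 10 min; 214/280 nm) after 12.5 μg peptide spent 30 min at 37.5 °C in pH 1.05 simulated gastric fluid, with or without 500 U/ml pepsin. Some samples quenched with Tris base and DTT.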

[4] = molecular target: trypsin (Sus scrofa, UniProt P00761); experiment: Trypsin digestion resistance of soluble peptide, RP-HPLC; assay type: in vitro ADME, porcine; set-up: purchased Sigma Aldrich 6567; settings: 500 U/ml trypsin, 30 minutes at 37.5° C.; HPLC peak vs untreated peptide
Sequence of trypsin (P00761 9-231): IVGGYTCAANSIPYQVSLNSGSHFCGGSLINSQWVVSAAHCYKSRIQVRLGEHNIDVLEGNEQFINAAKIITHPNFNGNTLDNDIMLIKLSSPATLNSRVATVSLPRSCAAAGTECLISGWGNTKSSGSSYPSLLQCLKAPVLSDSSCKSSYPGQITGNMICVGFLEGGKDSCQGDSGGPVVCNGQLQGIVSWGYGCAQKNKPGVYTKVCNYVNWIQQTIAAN
Method in brief: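 Read-out was RP-HPLC (C-18, water/acetonitrile with 0.1% TFA, 5-45% over 10 min) of peptide left after trypsin treatment. Digest: 12.5 μg peptide, 500 U/ml porcine trypsin, PBS, 37.5° C for 30 min, stopped by soybean trypsin inhibitor; samples then reduced (10 mM DTT) or left non-reduced.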

Row | Substance | Resistance to Temperature (75° C.) [1] | Resistance to Temperature (100° C.) [1] | Resistance to DTT Reduction (10 mM) [2] | Resistance to Pepsin (500 U/ml) [3] | Resistance to Trypsin (500 U/ml) [4]
1 | 17 (GSACQFWSCNSSCISRGYRQGYCWGIQYKYCQCQ) [compound 17] | High (A peptide classified as high indicates that the majority (at least 75%) of the HPLC peak of the treated peptide is still present as compared to the HPLC peak of the untreated peptide) | High (A peptide classified as high indicates that the majority (at least 75%) of the HPLC peak of the treated peptide is still present as compared to the HPLC peak of the untreated peptide) | Moderate (A peptide classified as medium indicates that about half (between 25% and 75%) of the HPLC peak of the treated peptide disappeared as compared to the HPLC peak of the untreated peptide) | High (A peptide classified as high indicates that the majority (at least 75%) of the HPLC peak of the treated peptide is still present as compared to the HPLC peak of the untreated peptide) | Low (A peptide classified as low indicates that the majority (over 75%) of the HPLC peak of the treated peptide disappeared as compared to the HPLC peak of the untreated peptide)
2 | 19 (GSQDKCKKVYENYPVSKCQLANQCNYDCKLDKHARSGECFYDEKRNLQCICDYCEY) [compound 19] | High (A peptide classified as high indicates that the majority (at least 75%) of the HPLC peak of the treated peptide is still present as compared to the HPLC peak of the untreated peptide) | Moderate (A peptide classified as medium indicates that about half (between 25% and 75%) of the HPLC peak of the treated peptide disappeared as compared to the HPLC peak of the untreated peptide) | Low (A peptide classified as low indicates that the majority (over 75%) of the HPLC peak of the treated peptide disappeared as compared to the HPLC peak of the untreated peptide) | High (A peptide classified as high indicates that the majority (at least 75%) of the HPLC peak of the treated peptide is still present as compared to the HPLC peak of the untreated peptide) | High (A peptide classified as high indicates that the majority (at least 75%) of the HPLC peak of the treated peptide is still present as compared to the HPLC peak of the untreated peptide)
3 | 20 (GSGHACYRNCWREGNDEETCKERC) [compound 20] | High (A peptide classified as high indicates that the majority (at least 75%) of the HPLC peak of the treated peptide is still present as compared to the HPLC peak of the untreated peptide) | Moderate (A peptide classified as medium indicates that about half (between 25% and 75%) of the HPLC peak of the treated peptide disappeared as compared to the HPLC peak of the untreated peptide) | Low (A peptide classified as low indicates that the majority (over 75%) of the HPLC peak of the treated peptide disappeared as compared to the HPLC peak of the untreated peptide) | High (A peptide classified as high indicates that the majority (at least 75%) of the HPLC peak of the treated peptide is still present as compared to the HPLC peak of the untreated peptide) | High (A peptide classified as high indicates that the majority (at least 75%) of the HPLC peak of the treated peptide is still present as compared to the HPLC peak of the untreated peptide)
4 | 21 (GSRCQLQGFNCVVRSYGLPTIPCCRGLTCRSYFPGSTYGRCQRY) [compound 21] | High (A peptide classified as high indicates that the majority (at least 75%) of the HPLC peak of the treated peptide is still present as compared to the HPLC peak of the untreated peptide) | Low (A peptide classified as low indicates that the majority (over 75%) of the HPLC peak of the treated peptide disappeared as compared to the HPLC peak of the untreated peptide) | Low (A peptide classified as low indicates that the majority (over 75%) of the HPLC peak of the treated peptide disappeared as compared to the HPLC peak of the untreated peptide) | High (A peptide classified as high indicates that the majority (at least 75%) of the HPLC peak of the treated peptide is still present as compared to the HPLC peak of the untreated peptide) | Moderate (A peptide classified as medium indicates that about half (between 25% and 75%) of the HPLC peak of the treated peptide disappeared as compared to the HPLC peak of the untreated peptide)
5 | 23 (GSEVIRCSGSKQCYGPCKQQTGCTNSKCMNKVCKCYGCG) [compound 23] | High (A peptide classified as high indicates that the majority (at least 75%) of the HPLC peak of the treated peptide is still present as compared to the HPLC peak of the untreated peptide) | Low (A peptide classified as low indicates that the majority (over 75%) of the HPLC peak of the treated peptide disappeared as compared to the HPLC peak of the untreated peptide) | Low (A peptide classified as low indicates that the majority (over 75%) of the HPLC peak of the treated peptide disappeared as compared to the HPLC peak of the untreated peptide) | High (A peptide classified as high indicates that the majority (at least 75%) of the HPLC peak of the treated peptide is still present as compared to the HPLC peak of the untreated peptide) | Low (A peptide classified as low indicates that the majority (over 75%) of the HPLC peak of the treated peptide disappeared as compared to the HPLC peak of the untreated peptide)
